Literature values, collected in paper PMC12086256.
pKd: −log10 of the molar value.

Target: VEGFR1 (Homo sapiens) (UniProt P17948)
UniProt P17948, sequence (P17948 27-758): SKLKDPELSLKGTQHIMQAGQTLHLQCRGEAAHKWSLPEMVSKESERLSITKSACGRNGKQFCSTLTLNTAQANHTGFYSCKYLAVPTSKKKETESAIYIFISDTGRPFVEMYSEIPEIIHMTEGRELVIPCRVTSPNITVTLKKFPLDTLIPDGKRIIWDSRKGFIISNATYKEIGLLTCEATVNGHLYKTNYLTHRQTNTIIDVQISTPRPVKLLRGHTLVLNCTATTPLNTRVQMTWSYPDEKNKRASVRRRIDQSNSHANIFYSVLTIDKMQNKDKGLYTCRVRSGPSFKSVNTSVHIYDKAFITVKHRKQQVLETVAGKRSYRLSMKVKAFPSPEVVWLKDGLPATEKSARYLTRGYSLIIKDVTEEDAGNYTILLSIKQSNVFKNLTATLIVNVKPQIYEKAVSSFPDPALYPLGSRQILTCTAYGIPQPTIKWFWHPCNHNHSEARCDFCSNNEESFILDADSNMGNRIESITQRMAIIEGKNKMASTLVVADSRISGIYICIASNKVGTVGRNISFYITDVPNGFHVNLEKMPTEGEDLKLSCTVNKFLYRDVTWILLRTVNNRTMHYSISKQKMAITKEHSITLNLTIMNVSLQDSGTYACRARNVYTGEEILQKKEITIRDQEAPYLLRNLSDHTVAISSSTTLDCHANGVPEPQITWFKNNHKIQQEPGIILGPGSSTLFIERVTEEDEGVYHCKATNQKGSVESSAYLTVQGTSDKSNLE

Question: With VEGF-B167 (from UniProt P49765) as the substance, how does the pKd read?
Answer: 8.70
